The nature of data set [1]: Competition of N^9-substituted and N^9-unsubstituted O^6-benzylguanine substrates. It is filed as biochemical. Conditions: comparator not stated. Here is the method: Such N^9-substituted O^6-alkylguanine substrates are the natural substrates of the wild type AGT. The ability of wild type AGT or mutant AGT to react with N^9-modified O^6-alkylguanine substrates is measured as the rate of its reaction with such substrates, e.g. with the low molecular weight N^9-cyclopentyl-O^6-benzylguanine in presence of biotinylated N^9-unsubstituted O^6-alkylguanine substrates in competition experiments. Subsequently, samples are subjected to Western blotting and detection with streptavidin derivates to obtain kinetic constants for these substrates. Alternatively, the reactivity towards such substrates is measured as the inhibition of the reaction of AGT with BG-Cy3. The reaction of AGT with BG-Cy3 is followed by an increase of Cy3 fluorescence intensity upon binding to AGT, after preincubation or in direct competition with the N^9-modified O^6-alkylguanine substrate.
Selected AGT mutants are subcloned into pGEX2T, expressed, purified and characterized as described in Example 1. Discrimination between N^9 substituted and N^9 unsubstituted O^6-benzylguanine substrates is evaluated by competition experiments for purified mutated GST-AGT in vitro with N^9-substituted and N′-unsubstituted O^6-benzylguanine. Aliquots of 0.2 μM GST-AGT are incubated with varying concentrations of N^9 substituted substrate (0, 0.5, up to 100 µM) and 0.5 µM biotinylated O^6-benzylguanine (BG-Bt, substance 3a of Juillerat et al., Chem Biol 10:313-317, 2003) in 50 mM HEPES pH 7.3 and 1 mM DTT at room temperature. After 45 min reactions are quenched by the addition of SDS-Laemmli buffer and heat denaturation. Samples are subjected to SDS-PAGE and Western blotting analysis (neutravidin-peroxidase conjugate (PIERCE), Renaissance reagent plus (NEN)). The intensity of the corresponding bands is quantified by a Kodak Image Station 440.

A short description of data set [2]: Expression yield of soluble GST-AGT fusion protein. On the set-up: species or system E. coli. The conditions noted are these: comparator not stated. On the procedure:
Expression yield is measured in E. coli or in any other of the standard production cells for genetically modified proteins, e.g. yeast, or preferably insect cells, CHO cells or HeLa cells. For quantifying expression yield, AGT fusion proteins may be chosen such that the fusion partner allows easy purification and quantification. For example, expression yield in E. coli is determined by measuring and comparing the yield of soluble and insoluble GST-wild type AGT fusion protein and GST-mutant AGT fusion protein from parallel E. coli expression cultures. Samples of the soluble fractions and insoluble fractions (i.e. the inclusion bodies) after cell lysis are subjected to SDS-PAGE, and the band staining intensities of the corresponding AGT fusion proteins are compared. Soluble protein is quantified after purification of the fusion protein from cell extracts by affinity chromatography (e.g. for GST-AGT fusion proteins by glutathione sepharose) by subjecting the purified fractions to a protein concentration assay (Bradford, Anal Biochem 72:248-54, 1976). The expression yield of similar proteins in the soluble fraction (difference in point mutations) can be used as a measure for protein stability in the unpurified as well as the purified state (Ohage et al., J Mol Biol 291:1119-1128, 1999; Wirtz et al., Protein Sci 8: 2245-50, 1999). Therefore, this is taken as a measure of folding stability and aggregation tendency.
Protein expression from this vector is carried out in E. coli strain BL21. An exponentially growing culture is induced with 0.5 mM IPTG, and the expression is carried out for 3.5 h at 24° C.
Purification: The harvested cells are resuspended in a buffer containing 50 mM phosphate, 0.5 M NaCl, 1 mM DTT, supplemented with 1 mM PMSF and 2 μg/ml aprotinin, and disrupted by lysozyme and sonification. The cell debris are separated by centrifugation at 40000×g. The extract is applied to pre-equilibrated glutathione sepharose (Amersham) which is then washed with 20 bed volumes (50 mM phosphate, 0.5 M NaCl, 1 mM DTT). The mutated GST-AGT fusion protein is eluted with 10 mM reduced glutathione in 50 mM Tris·HCl pH 7.9. The purified protein is dialyzed against 50 mM HEPES pH 7.2; 1 mM DTT; 30% glycerol and then stored at −80° C.
Determination of protein yield: Purity and relative amounts of the GST-AGT fusion proteins are compared by running samples on SDS-PAGE. UV spectra of the pure fractions are recorded using a Perkin Elmer Lambda 10. For protein samples containing no significant amount of DNA, the extinction at 280 nm as a measure of protein content is compared to that of wild type hAGT or PGEG-hAGT that were purified under the same conditions.

A short description of data set [3]: Activity assay with biotinylated O^6-benzylguanine (BG-Bt), Western blotting. In kind it is biochemical. Conditions: statement in words. On the procedure: Activity towards O^6-benzylguanine substrates is measured as described by Juillerat et al., Chem Biol 10:313-317, 2003.
Activity assay: Purified mutated GST-AGT is incubated in vitro with a biotinylated O^6-benzylguanine (BG-Bt, substance 3a of Juillerat et al., Chem Biol 10:313-317, 2003). In a total reaction volume of 80 […]I, 0.2 µM GST-AGT are incubated with 1 µM substrate in 50 mM HEPES pH 7.2 and 1 mM DTT at room temperature. At several points of time an aliquot is quenched with 1 mM O^6-benzylguanine (Sigma) in SDS-Laemmli buffer and subjected to Western blotting analysis (neutravidin-peroxidase conjugate (PIERCE), Renaissance reagent plus (NEN)). The intensity of the corresponding bands is quantified by a Kodak Image Station 440.
Background: A western blot detects proteins with antibodies after separation by electrophoresis.

A short description of data set [4]: Periplasmic expression / stability under oxidizing conditions. On the set-up: species or system E. coli. On the procedure:
The activities towards AGT substrates are measured after purification without addition of reducing agents such as dithiothreitol or beta-mercaptoethanol. Alternatively, the activities of mutant AGT and wild type human are compared after their export into cellular compartments with oxidising redox potential (e.g. the periplasm of E. coli due to their fusion to appropriate signal sequences. Activity towards AGT substrates under reducing and oxidising conditions is compared by performing the reactions in the presence or absence of reducing agents such as dithiothreitol or beta-mercaptoethanol.
The mutant AGT gene of Example 1 is amplified and cloned as described in Example 1 with the oligonucleotides SEQ ID NO:3, SEQ ID NO:10 and SEQ ID NO:4, SEQ ID NO:9 causing the further mutation Cys62Ala in the gene upon their incorporation by PCR. Protein expression, purification and determination of yield is carried out as described in Example 1. The mutant gene is PCR amplified with the primers SEQ ID NO:11, SEQ ID NO:12 that contain SfiI restriction sites to subclone the gene in fusion to the g3 protein of filamentous phage in the vector pAK100 (Krebber et al., J Immunol Methods 201:35-55, 1997). […] The supernatant is directly subjected to quantification of protein yield via SDS-PAGE and activity assays as described in Example 1.
Stability under oxidizing conditions: The mutant gene is PCR amplified with the primers SEQ ID NO:11 and SEQ ID NO:28 to subclone the gene into pAK100, as described in Example 2. […] To compare the reactivity of […] (Juillerat et al., Chem Biol 10:313-317, 2003) and the mutant, samples are incubated with 1 µM BG-Bt for 50 min, quenched with SDS-Laemmli buffer and analyzed by western blotting using neutravidin peroxidase conjugate (Pierce) or a monoclonal mouse anti-FLAG IgG antibody (M2, Sigma) and a secondary anti-mouse-IgG::HRP conjugate, and Renaissance reagent plus (NEN). […] The anti-FLAG IgG antibody is used to estimate the total amount of soluble AGT protein, whereas neutravidin quantifies the reactive portion of it. […]

The source of these data is patent US7888090B2, “Mutants of O6-alkylguanine-DNA alkyltransferase” (Ecole Polytechnique Federale de Lausanne, priority 2004, dated 2011).

B1: Cys62Ala, Gln115Ser, Gln116His, Lys125Ala, Ala127Thr, Arg128Ala, Cys150Asn, Ser151Ile, Ser152Asn, Asn157Gly, Ser159Glu, truncated after Gly182: particularly preferred hAGT mutant with the listed … (protein, UniProt P16455 1-207, looked up, variant C62A Q115S Q116H K125A A127T R128A C150N S151I S152N N157G S159E del183-207)
Methylated-DNA--protein-cystei …: MDKDCEMKRTTLDSPLGKLELSGCEQGLHEIKLLGKGTSAADAVEVPAPAAVLGGPEPLMQATAWLNAYFHQPEAIEEFPVPALHHPVFQQESFTRQVLWKLLKVVKFGEVISYSHLAALAGNPAATAAVGGAMRGNPVPILIPCHRVVNINGAVGGYEGGLAVKEWLLAHEGHRLGKPGLG
With B1, the “reduced reactivity towards O^6-alkyl-N^9-deoxyribosylguanine or N^9-cyclopentyl-O^6-benzylguanine” value in data set [1] was “retain reactivity”. The “expression yield in E. coli” value in data set [2] is “increased expression yield”. Also, in data set [3], the “activity towards O^6-benzylguanine substrates” value was “increased reactivity”. For the same molecule, in data set [4], the sensitivity to oxidation result is reported as “reduced sensitivity to oxidation”.
